How the values were obtained:
[1] = system: RNA polymerase III (Homo sapiens); details: 90 min IVT from 100 nM coligo; 6 mM MgCl2; abolished by 120 ug/ml alpha-amanitin
[2] = system: TS2126 RNA ligase 1 (Bacteriophage TS2126); details: 5' phosphate; splintless circularization, 2.5 mM MnCl2, 50 uM ATP, 60 C, 2 h
[3] = system: RNA polymerase III (Homo sapiens); details: HEK293T WCE transcription; mainly single round
RNA polymerase II = RNA polymerase II (UniProt P04050;P08518;P16370;P20433;P20434;P20435;P34087;P20436;P27999;P22139;P38902;P40 …); assay: in vitro transcription processivity, 1 uM template, 37 C; details: tags: yeast RNAP II from D. Bushnell and R. Kornberg; circular, stem-loop
Text: (§1) Chem. Soc. 117, 7818-7819 (1995)) (FIG. 5b, gel region “a”). As a relative measure of transcriptional processivity, we calculated the ratio of the radioactivity incorporated in the rolling circle transcripts (FIG. 5b, gel region “a” in lanes 3, 6, 9) to the sum of all shorter transcripts (gel region “b”). Lower a/b ratios indicate lower processivity. […] Thus, the ability to initiate promoterless transcription on coligo templates appears to have been retained during RNAP evolution, while the processivity needed for RCT appears to have been lost.
(§2) In vitro transcription (IVT). IVT using WCE, uniform labeling with [α-³²P]-UTP and the linear or circular (coligo) templates was performed as follows. A typical 20 μl reaction contained 25 μg total WCE protein, 20 units RNase inhibitor (Promega) 1.25 mM each ATP, CTP, GTP, 0.2 mM UTP, (except FIG. 5b, which contained 1.25 mM each NTP), ˜2 μCi [α-³²P]-UTP, 40 mM Tris-HCl pH 7.9, 6 mM MgCl₂, 10 mM DTT, 2 mM spermidine, 100 μM NaCl); 100 nM template unless otherwise indicated. IVT using E. coli RNA polymerase (USB) was carried out in 40 mM Tris-HCl, pH 8.0, 10 mM MgCl₂, 5 mM DTT, 50 mM KCl, 50 μg/ml BSA), 1 μM coligo template, 1.25 mM NTP, ˜2 μCi [α-³²P]-UTP, 1 unit/μl RNAse inhibitor. […] Images and quantitation were performed using MD ImageQuant software. […]

RNA polymerase = RNA polymerase (Escherichia coli, UniProt P0A7Z4;P0A8V2;P0A8T7;P0A800 P0A7Z4:1-329,P0A8V2:1-1342,P0A8T7:1-1407,P0A800:2-91); assay: in vitro transcription processivity, 10 mM MgCl2, 37 C; details: tags: USB; chain copies: 2,1,1,1; circular, stem-loop
Text: as §1, §2

RNA polymerase, sequence (P0A7Z4 whole entry, chain 1 of 4): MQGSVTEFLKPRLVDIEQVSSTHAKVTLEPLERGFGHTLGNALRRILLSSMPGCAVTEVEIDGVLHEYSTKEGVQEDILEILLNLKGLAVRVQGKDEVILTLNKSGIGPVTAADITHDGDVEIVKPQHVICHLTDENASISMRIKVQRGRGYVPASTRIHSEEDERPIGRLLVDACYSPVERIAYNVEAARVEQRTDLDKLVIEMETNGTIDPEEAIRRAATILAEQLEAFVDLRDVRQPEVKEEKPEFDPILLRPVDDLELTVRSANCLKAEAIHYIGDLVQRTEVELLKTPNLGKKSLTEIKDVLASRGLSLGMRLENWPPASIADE
RNA polymerase, sequence (P0A8V2 whole entry, chain 2 of 4): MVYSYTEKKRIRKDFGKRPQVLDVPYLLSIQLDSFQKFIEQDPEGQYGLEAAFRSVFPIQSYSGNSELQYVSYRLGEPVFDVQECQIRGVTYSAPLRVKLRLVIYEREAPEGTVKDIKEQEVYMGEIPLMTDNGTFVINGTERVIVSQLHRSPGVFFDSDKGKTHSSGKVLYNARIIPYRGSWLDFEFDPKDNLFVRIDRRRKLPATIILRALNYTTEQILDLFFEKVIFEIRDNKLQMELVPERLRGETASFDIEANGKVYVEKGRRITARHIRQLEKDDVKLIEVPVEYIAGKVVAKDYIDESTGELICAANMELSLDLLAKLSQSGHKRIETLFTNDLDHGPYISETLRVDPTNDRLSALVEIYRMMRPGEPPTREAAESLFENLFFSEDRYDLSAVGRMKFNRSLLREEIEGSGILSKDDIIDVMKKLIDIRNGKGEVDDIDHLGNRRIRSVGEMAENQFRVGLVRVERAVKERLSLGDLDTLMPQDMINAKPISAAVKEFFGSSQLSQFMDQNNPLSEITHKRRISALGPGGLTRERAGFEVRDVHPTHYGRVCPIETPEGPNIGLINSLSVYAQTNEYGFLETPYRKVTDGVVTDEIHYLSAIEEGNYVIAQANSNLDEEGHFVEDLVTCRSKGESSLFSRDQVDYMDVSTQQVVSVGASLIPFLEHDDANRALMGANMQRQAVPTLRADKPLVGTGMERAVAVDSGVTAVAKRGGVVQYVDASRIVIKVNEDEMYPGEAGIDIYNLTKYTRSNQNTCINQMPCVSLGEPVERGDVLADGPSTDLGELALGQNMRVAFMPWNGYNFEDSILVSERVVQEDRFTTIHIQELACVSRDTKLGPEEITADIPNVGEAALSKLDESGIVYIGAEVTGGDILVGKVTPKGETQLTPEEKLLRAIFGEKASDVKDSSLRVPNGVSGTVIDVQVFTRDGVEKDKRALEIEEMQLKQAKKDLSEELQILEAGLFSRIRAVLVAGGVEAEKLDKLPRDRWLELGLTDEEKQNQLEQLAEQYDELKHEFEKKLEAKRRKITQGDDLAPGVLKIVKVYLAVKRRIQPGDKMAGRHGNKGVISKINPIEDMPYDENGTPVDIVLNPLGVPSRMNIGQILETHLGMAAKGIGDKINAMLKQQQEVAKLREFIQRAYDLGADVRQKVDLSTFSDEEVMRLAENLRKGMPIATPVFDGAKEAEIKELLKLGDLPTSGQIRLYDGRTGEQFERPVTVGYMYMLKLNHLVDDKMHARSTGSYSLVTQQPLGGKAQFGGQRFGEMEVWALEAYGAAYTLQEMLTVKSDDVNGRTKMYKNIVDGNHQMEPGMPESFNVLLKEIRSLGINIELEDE
RNA polymerase, sequence (P0A8T7 whole entry, chain 3 of 4): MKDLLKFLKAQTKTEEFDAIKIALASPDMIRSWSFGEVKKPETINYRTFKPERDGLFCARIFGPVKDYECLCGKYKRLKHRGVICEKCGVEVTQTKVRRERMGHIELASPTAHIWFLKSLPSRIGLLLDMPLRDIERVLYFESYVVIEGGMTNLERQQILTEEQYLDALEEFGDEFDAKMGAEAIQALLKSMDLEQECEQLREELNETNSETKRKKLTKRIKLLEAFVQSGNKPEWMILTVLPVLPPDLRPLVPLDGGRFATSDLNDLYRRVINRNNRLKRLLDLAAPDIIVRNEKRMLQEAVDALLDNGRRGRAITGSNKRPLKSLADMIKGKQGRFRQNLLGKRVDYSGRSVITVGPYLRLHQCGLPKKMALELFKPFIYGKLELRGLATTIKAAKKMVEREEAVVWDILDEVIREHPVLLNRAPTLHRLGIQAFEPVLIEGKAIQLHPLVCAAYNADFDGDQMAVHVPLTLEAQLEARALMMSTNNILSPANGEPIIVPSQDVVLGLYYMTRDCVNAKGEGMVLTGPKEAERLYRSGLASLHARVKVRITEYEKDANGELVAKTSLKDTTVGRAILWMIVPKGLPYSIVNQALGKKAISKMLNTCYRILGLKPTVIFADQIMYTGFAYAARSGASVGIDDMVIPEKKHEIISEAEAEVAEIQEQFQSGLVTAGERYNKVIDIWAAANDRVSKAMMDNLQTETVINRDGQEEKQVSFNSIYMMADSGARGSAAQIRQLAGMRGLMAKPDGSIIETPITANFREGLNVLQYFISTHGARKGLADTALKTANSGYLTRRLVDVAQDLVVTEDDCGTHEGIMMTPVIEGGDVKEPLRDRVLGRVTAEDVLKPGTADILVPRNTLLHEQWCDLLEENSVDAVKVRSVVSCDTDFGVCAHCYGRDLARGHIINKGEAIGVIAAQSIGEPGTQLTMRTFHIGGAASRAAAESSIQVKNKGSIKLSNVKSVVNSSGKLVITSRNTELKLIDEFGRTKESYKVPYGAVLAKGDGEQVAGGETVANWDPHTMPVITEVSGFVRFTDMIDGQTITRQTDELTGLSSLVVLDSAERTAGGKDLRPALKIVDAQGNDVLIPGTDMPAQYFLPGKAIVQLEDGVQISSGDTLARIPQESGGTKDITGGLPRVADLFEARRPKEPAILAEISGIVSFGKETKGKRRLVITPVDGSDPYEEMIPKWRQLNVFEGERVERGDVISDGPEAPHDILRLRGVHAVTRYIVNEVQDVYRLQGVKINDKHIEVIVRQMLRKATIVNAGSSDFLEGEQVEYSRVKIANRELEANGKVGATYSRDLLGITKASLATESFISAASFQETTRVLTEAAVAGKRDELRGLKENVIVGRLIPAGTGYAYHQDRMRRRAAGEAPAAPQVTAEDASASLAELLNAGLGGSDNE
RNA polymerase, sequence (P0A800 2-91, chain 4 of 4): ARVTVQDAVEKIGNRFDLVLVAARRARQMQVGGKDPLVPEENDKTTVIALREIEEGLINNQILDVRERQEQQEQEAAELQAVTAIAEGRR

CTCAGATCTGCCTGCAACTATGCAAAACTAACAGAGGACTGCAAACAAAAACTAGAAGGAAATAGCAGGCCACCATCAGTTTTGCATAGATTTGCACAACGGCAGAGAGCTCCCAGG [coligo 19aTAR (19am)]
activity (nM transcript) [1]: 0.6

CTCAGATCTGCCTGCAACTATGCAAAACTAACAGAGGACTGCAAACAAAAACTAGAAGGAAATAGCAGGCCACCATCAGTTTTGCATAGATTTGCACAACGGCAGAGAGCTCCCAGG [linear 19aTAR]
activity (% cyclization) [2]: 73

TTGCCTAGCAGTAGCTATTTAGTGTGATAATGGCGTTTGATAGTTTAGACACAAACACCATTGTCACACTCCACAGCTCTGCTAAGGAA [coligo 122]
binding signal (RCT/short transcript ratio) [3]: 0.01

B1: coligo 122 (structured_DNA)
DNA: TTGCCTAGCAGTAGCTATTTAGTGTGATAATGGCGTTTGATAGTTTAGACACAAACACCATTGTCACACTCCACAGCTCTGCTAAGGAA
transcriptional processivity (rolling-circle/short transcript ratio) (RNA polymerase II): 0.3 RCT/short transcript ratio | binding signal (RNA polymerase): 2.3 RCT/short transcript ratio

From patent US20130245102, “NOVEL DNA TEMPLATES FOR SMALL RNA PRODUCTION IN MAMMALIAN CELLS” (Research Foundation of the City University of New York, published 2013)
